The text below walks through data of paper PMC4359245 (Oncotarget, 2014).

The target in data set [1] is T1, proteinase K (Parengyodontium album, UniProt P06873). Briefly: Proteinase K digestion of synthetic Aβ spiked into non-AD brain homogenate. As to conditions: spiked into non-AD brain homogenate with no detectable endogenous Aβ; P2 fraction; PK 0-50 μg/ml, 1 h, 37°C; western blot 6E10.
Data set [2] is classed as physicochemical. Particulars: spiked into HuPrP-Tg mouse brain homogenate, RT 12 h, 10-60% sucrose step gradient, 200,000 x g, 1 h, 4°C, western blot 6E10; for Sucrose gradient fractions holding the majority of the peptide: 12 fractions from top.
For data set [3] the following is noted: pH 7.5.
In data set [4] the target is T1, proteinase K. Briefly: Proteinase K digestion of synthetic Aβ in lysis buffer, western blot. In kind it is in vitro ADME. As to conditions: 1 h, 37°C, western blot 6E10; for Immunoreactivity with 6E10 after PK digestion (PK sensitivity): peptide in 1X PBS diluted in 1X lysis buffer, no DMSO, smallest amount of PK 5 μg/ml (range 0-50 μg/ml); for PK sensitivity of peptides dissolved in DMSO: 1X lysis buffer, PK 0-50 μg/ml.

Data set [5] can be described thus: Negative-stain electron microscopy of synthetic Aβ with and without PK digestion. As to conditions: for Fibrils seen by electron microscopy after PK digestion: PK-treated peptide preparations, negative stain EM; for Fibril formation and morphology by electron microscopy: peptide in PBS, without PK, negative stain 2% uranylacetate, 80 kV. In kind it is physicochemical. The source says:
To further rule out this possibility, PK-treated peptides were also examined by EM.
The excess buffered-protein solution was removed, and negatively stained with 2% uranylacetate. Grids were then washed by touching a buffer and the excess buffer blotted off immediately using a Whatman filter paper. Grids were then air-dried and kept at room temperature. Negatively stained specimens were observed by a JEOL 1200EX electron microscope (JEOL, Tokyo, Japan) with 80 kV of electron acceleration voltage.

Some results are limits rather than exact numbers.

T1 sequence (P06873 106-384): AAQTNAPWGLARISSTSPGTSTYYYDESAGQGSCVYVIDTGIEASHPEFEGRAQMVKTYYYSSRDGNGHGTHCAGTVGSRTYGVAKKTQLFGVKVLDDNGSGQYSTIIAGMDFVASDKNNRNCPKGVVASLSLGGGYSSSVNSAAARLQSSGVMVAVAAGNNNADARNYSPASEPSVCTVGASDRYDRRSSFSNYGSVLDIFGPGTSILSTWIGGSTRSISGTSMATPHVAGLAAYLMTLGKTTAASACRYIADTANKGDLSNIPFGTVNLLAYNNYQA

Consider “Aβ40: synthetic amyloid β peptide Aβ40 purchased from Sigma”, for which, in the data set with proteinase K [1], the “PK resistance of spiked peptide (PK concentration resisted)” value is at least 50 µg/mL. For the same substance, in data set [2], the “Sucrose gradient fractions holding the majority of the peptide” value was “between fractions 1 and 3”; the “Large aggregates in bottom fractions 10-12 of the sucrose gradient” value was “detected in significant amounts in fractions 10 to 12”. Besides, in data set [3], the “Detergent solubility: fraction in which the peptide is detected (S2 supernatant = soluble, P2 pellet = insoluble)” value is “only in the S2 but not in the P2”. In addition, in the data set with proteinase K [4], the “Immunoreactivity with 6E10 after PK digestion (PK sensitivity)” value was “No immunoreactivity” and the “PK sensitivity of peptides dissolved in DMSO” value was “PK-sensitive”. In data set [5], the “Fibrils seen by electron microscopy after PK digestion” value was “no fibrils or significant structures could be observed”; the “Fibril formation and morphology by electron microscopy” value is given as “relatively scarce but much longer”.

Consider “Aβ42: synthetic amyloid β peptide Aβ42 purchased from Sigma”, for which, in the data set with proteinase K [1], the “PK resistance of spiked peptide (PK concentration resisted)” value was at least 50 µg/mL. In data set [2], the “Sucrose gradient fractions holding the majority of the peptide” value was “between fractions 1 and 3”; the “Large aggregates in bottom fractions 10-12 of the sucrose gradient” value is “smaller amounts”. Further, in the data set with proteinase K [4], the “Immunoreactivity with 6E10 after PK digestion (PK sensitivity)” value was “No immunoreactivity” and the “PK sensitivity of peptides dissolved in DMSO” value is reported as “PK-sensitive”. In addition, in data set [5], the “Fibrils seen by electron microscopy after PK digestion” value is reported as “no fibrils or significant structures could be observed”; the “Fibril formation and morphology by electron microscopy” value was “numerous but short fibrils”.
